Values of other authors in PMC4448172.

Molecular target: KV1.3 (UniProt P22001)
Sequence of UniProt P22001 (P22001 whole entry): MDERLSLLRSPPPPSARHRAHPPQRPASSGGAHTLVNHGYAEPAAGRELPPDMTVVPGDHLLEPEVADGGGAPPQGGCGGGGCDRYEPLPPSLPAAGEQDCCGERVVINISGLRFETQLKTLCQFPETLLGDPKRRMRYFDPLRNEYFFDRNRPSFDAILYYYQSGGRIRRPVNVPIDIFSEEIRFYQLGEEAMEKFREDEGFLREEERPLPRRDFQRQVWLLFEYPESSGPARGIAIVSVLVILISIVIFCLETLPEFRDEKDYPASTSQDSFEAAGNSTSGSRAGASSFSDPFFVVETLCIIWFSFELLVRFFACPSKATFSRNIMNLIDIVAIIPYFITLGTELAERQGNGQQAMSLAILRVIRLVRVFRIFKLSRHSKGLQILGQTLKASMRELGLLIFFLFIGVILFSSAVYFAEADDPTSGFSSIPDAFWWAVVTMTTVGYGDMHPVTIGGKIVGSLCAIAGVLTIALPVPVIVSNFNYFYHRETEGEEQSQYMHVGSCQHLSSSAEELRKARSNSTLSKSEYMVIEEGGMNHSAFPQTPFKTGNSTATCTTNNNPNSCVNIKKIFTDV

In the case of ShK (from UniProt P29187), the Kd is given as 0.011 nM.
